In patent US20160108110A1 (Novartis, published 2016):

B1: MOR022765 (antibody, human IgG1, lambda, V domains shown)
VH: EVQLVQSGAEVKKPGESLKISCKGSGYSFSTYWISWVRQMPGKGLEWMGIIDPSSSDTRYSPSFQGQVTISADKSISTAYLQWSSLKASDTAMYYCARVYGYVYMDVWGQGTLVTVSS
VL: SYELTQPLSVSVALGQTARITCSGDNLGKKYAYWYQQKPGQAPVLVIYDKTKRPSGIPERFSGSNSGNTATLTISRAQAGDEADYYCASYDWYSSSYVFGGGTKLTVLG
notes: human IgG1
B2: MOR021792 (antibody, human IgG1, lambda, V domains shown)
VH: QVQLLESGGGLVQPGGSLRLSCAASGFTFSDYAMDWVRQAPGKGLEWVSKISYDGSYTYYADSVKGRFTISRDNSKNTLYLQMNSLRAEDTAVYYCARPSMSYYIIPAGFDVWGQGTLVTVSS
VL: DIELTQPPSVSVSPGQTASITCSGDALGVKRASWYQQKPGQAPVLVIYKDNNRPSGIPERFSGSNSGNTATLTISGTQAEDEADYYCSVRTWSMNLYVFGGGTKLTVLG
B3: MOR021798 (antibody, human IgG1, lambda, V domains shown)
VH: QVQLLESGGGLVQPGGSLRLSCAASGFTFSDYALHWVRQAPGKGLEWVSRISYMGSSTYYADSVKGRFTISRDNSKNTLYLQMNSLRAEDTAVYYCAREHYYSSPMGGVAVDNWGQGTLVTVSS
VL: DIVLTQPPSVSGAPGQRVTISCSGSSSNIGYNTVSWYQQLPGTAPKLLIYSNNIRPSGVPDRFSGSKSGTSASLAITGLQAEDEADYYCSSWDFLIKSLVFGGGTKLTVLG
notes: human IgG1

Tests used:
[1] = target: T1, Human ANGPTL4(26-406)-FLAG-His6-Avi (human, UniProt Q9BY76 24-406, biotin on the C-terminal Avi tag in the biotinylated preparations (immobilised form in SET, ELISA and Octet)); experiment: SET assay (solution equilibrium titration, MSD), IgG
T1 construct: also called full-length human ANGPTL4; hANGPTL4
T1 sequence: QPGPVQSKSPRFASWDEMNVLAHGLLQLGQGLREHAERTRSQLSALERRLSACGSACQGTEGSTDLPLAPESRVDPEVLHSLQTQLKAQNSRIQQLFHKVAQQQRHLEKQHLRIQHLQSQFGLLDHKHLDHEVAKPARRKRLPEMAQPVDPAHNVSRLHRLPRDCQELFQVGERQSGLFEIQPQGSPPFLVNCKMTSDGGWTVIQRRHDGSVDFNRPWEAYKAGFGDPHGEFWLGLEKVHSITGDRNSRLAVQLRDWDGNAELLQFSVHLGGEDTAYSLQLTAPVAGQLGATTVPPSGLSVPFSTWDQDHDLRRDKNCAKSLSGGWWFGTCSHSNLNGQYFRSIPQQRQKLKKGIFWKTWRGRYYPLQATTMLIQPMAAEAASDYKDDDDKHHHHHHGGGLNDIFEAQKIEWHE
Description: (§1) SET assays were performed as follows. In a 96-well polypropylene plate, a constant concentration of ANGPTL4 antibody was mixed with different concentrations of non-biotinylated human, cyno, mouse, or rat full-length ANPGLT4 protein, or human ANGPTL4 N-terminal domain protein (5-fold serial dilution) and incubated at 22° C. for 14 hours with constant shaking (300 rpm). On a pre-blocked 384-well streptavidin-coated Meso Scale Discovery (MSD) plate biotinylated ANGPTL4 (full-length human, cyno, mouse, or rat ANGPTL4, or human ANGPTL4 N-terminal domain) protein (1 nM, 15 μL per well) was immobilized and washed thereafter.
(§2) The equilibrium binding reactions (15 μL per well) were applied to the MSD plate with immobilized ANGPTL4 and incubated for 20 min at 22° C. The unbound material was removed by washing the plate 3 times with wash buffer, and the captured antibody was detected by adding Sulfo-tagged goat anti-human IgG (Meso Scale Discovery). After washing MSD read buffer T was added and the plate was developed using a Sector Imager 6000 (Meso Scale Discovery). The data were transferred to Microsoft Excel for analysis and plotted using GraphPad Prism v6. The KD values were determined by fitting the data to the following equation: […]
(§3) where Bₘₐₓ is the signal when no ANGPTL4 protein is present in solution, CAb is the constant concentration of ANGPTL4 antibody in solution, CAg is the concentration of ANGPTL4 in solution, and KD is the equilibrium dissociation constant.

[2] = target: T2, Mouse ANGPTL4(26-410)-FLAG-His6-Avi (mouse, UniProt Q9Z1P8 24-410, biotin on the C-terminal Avi tag in the immobilised form); experiment: as above
T2 sequence: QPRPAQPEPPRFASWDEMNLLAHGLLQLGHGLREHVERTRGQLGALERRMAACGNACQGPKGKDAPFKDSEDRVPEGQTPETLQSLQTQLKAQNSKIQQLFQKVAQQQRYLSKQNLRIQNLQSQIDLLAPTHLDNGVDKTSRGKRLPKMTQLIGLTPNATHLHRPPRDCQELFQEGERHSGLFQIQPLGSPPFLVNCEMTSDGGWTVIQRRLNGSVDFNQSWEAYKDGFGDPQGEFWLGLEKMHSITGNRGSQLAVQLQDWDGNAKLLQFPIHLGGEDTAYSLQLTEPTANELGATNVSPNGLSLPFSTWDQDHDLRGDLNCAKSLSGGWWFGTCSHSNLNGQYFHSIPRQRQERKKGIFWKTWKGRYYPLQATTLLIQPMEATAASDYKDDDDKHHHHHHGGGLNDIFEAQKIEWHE
Description: as §1, §2, §3

[3] = target: T1, Human ANGPTL4(26-406)-FLAG-His6-Avi; experiment: cell-based or functional assay
[4] = target: T1, Human ANGPTL4(26-406)-FLAG-His6-Avi; experiment: ForteBio Octet, biotinylated antigen on streptavidin sensor, antibody in solution
Description: Dissociation constants (KD) were determined for selected antibodies of the invention by using an Octet (ForteBio) kinetic binding assay. ForteBio 10× Kinetics Buffer (ForteBio, catalog number 18-5032) was diluted 10-fold with DPBS (Life Technologies, catalog number 14190-136), and the resulting solution was added (0.2 ml per well) to a 96-well plate (Greiner, catalog number 65520). Streptavidin sensors (ForteBio, catalog number 18-5020) were immersed in the solution and equilibrated for at least 10 min at room temperature. In a second 96-well plate (Greiner, catalog number 65520), sensors were washed in 1× Kinetics buffer, and then immersed in 200 ul of 25 nM biotinylated human ANGPTL4 or a biotinylated reference protein (for background substraction) for 1000 sec […] at room temperature. The sensors were then washed in 1× Kinetics buffer for 120 sec, and immersed in 200 ul of ANGPTL4 antibody diluted in 1× Kinetics buffer at various concentrations (serial 2-fold dilutions ranging from 25 nM to 0.4 nM), and antibody association was monitored for 480 seconds. The sensors were then transferred to a well containing 200 ul 1× Kinetics buffer, and antibody dissociation was monitored for 1200 seconds. Background-corrected association and dissociation curves were globally fitted by Octet Software (ForteBio) to generate association (kₒₙ) and dissociation (koff) rate constants, which in turn were used to calculate equilibrium dissociation constants (KD).

Binder	Kd [1]	Kd [2]	Reversal of human ANGPTL4 inhibition of human LPL EC50 [3]	Kd [4]	koff [4]	kon [4]
B1	10 pM	–	–	–	–	–
B2	10 pM	5 pM	1000 pM	184 pM	6.5e-05 s⁻¹	250000 M⁻¹ s⁻¹
B3	93 pM	517 pM	2000 pM	444 pM	9.9e-05 s⁻¹	220000 M⁻¹ s⁻¹
